Molecular target: netrin-1 (UniProt O95631)

For “DCC-HaloTag (from UniProt P43146 26-1447) (receptor)”, the percent of DCC-HaloTag speckles in grip (immobile) phase in growth-cone filopodia of hippocampal neurons on netrin-1-coated substrate, TIRF speckle imaging (15% grip on polylysine alone) was 40%.
